Laboratory results reported in patent publication US20210275641A1 (SYNTHEKINE, published 2021).

T1: IL-2 receptor of the human CD4 positive T cell clone 3F8 (expresses CD25 and CD122) (human, UniProt P01589 22-272; P14784 27-551)
T1 sequence 1: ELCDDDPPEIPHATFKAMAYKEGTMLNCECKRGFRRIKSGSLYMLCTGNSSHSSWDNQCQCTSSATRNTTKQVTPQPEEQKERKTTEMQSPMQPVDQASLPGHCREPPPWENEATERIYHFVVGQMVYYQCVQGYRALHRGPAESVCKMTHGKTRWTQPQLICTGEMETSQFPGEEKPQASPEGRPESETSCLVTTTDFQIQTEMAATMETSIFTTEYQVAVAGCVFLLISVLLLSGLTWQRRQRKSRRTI
T1 sequence 2: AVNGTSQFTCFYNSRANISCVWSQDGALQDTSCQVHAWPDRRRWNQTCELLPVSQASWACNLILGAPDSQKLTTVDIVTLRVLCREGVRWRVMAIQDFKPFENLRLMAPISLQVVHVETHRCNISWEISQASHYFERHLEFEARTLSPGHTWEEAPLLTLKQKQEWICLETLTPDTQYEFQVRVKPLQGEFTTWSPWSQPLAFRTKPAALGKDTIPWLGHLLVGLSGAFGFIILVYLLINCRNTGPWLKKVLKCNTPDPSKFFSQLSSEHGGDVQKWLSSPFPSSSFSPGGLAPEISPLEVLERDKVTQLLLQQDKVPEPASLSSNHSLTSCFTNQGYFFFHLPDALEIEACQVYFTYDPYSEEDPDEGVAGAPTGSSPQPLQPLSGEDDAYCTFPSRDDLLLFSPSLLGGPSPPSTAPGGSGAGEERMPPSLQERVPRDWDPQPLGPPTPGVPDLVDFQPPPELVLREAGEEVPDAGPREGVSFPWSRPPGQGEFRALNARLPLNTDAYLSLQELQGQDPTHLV

T2: human high affinity trimeric IL-2 receptor (CD25/CD122/CD132) (human, UniProt P01589 22-272; P14784 27-551; P31785 23-369)
T2 sequence 1: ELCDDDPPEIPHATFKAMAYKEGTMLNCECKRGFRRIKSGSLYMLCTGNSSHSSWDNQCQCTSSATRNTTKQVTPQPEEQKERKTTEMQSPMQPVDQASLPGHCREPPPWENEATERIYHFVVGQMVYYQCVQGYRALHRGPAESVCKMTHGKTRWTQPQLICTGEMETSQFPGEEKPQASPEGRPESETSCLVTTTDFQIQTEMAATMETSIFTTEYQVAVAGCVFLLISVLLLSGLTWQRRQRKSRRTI
T2 sequence 2: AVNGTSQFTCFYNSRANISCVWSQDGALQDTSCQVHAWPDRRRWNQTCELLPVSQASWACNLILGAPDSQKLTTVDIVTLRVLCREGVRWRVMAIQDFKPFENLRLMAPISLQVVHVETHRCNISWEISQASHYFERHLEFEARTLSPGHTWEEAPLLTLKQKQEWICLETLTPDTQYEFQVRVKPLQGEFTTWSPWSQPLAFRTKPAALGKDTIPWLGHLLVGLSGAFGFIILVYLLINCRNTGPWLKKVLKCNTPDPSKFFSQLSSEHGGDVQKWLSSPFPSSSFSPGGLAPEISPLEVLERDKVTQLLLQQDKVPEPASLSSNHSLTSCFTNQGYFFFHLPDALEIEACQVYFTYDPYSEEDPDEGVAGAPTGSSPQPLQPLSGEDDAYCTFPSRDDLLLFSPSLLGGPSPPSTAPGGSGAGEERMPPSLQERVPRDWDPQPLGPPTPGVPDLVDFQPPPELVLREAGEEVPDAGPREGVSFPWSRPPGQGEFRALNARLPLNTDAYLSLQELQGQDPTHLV
T2 sequence 3: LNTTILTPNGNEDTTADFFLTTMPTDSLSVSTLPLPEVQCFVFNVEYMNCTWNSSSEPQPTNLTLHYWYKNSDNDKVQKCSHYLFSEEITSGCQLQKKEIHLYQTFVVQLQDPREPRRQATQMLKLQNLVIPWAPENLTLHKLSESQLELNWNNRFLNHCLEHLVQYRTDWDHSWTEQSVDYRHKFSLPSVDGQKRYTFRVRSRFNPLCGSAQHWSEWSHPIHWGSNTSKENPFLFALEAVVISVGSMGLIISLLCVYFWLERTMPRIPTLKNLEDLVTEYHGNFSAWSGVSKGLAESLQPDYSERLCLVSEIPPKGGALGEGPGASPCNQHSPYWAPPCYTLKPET


What was measured:
Test in all cases: cell-based or functional assay
[1] = molecular target: T1, IL-2 receptor of the human CD4 positive …
[2] = molecular target: T2, human high affinity trimeric IL-2 …
[3] = molecular target: T2, human high affinity trimeric IL-2 …; remark: listed apart in the source

Row | IFNγ Production IC50 (pM), 3F8 cells [1] | Proliferation IC50 (pM), 3F8 cells [1] | other results | Binder
1 | 15.7 pM | 13.7 pM |  | hIL2 mutein REN (L18R, Q22E, Q126N) (ligand) APTSSSTKKTQLQLEHLRLDLEMILNGINNYKNPKLTRMLTFKFYMPKKATELKHLQCLEEELKPLEEVLNLAQSKNFHLRPRDLISNINVIVLELKGSETTFMCEYADETATIVEFLNRWITFCNSIISTLT
2 | 19 pM | 13.7 pM |  | hIL2 mutein AEK (L18A, Q22E, Q126K) (ligand) APTSSSTKKTQLQLEHLALDLEMILNGINNYKNPKLTRMLTFKFYMPKKATELKHLQCLEEELKPLEEVLNLAQSKNFHLRPRDLISNINVIVLELKGSETTFMCEYADETATIVEFLNRWITFCKSIISTLT
3 | 8.8 pM | 10 pM |  | hIL2 mutein IEK (L18I, Q22E, Q126K) (ligand) APTSSSTKKTQLQLEHLILDLEMILNGINNYKNPKLTRMLTFKFYMPKKATELKHLQCLEEELKPLEEVLNLAQSKNFHLRPRDLISNINVIVLELKGSETTFMCEYADETATIVEFLNRWITFCKSIISTLT
4 | 12.7 pM | 32.6 pM |  | hIL2 mutein REM (L18R, Q22E, Q126M) (ligand) APTSSSTKKTQLQLEHLRLDLEMILNGINNYKNPKLTRMLTFKFYMPKKATELKHLQCLEEELKPLEEVLNLAQSKNFHLRPRDLISNINVIVLELKGSETTFMCEYADETATIVEFLNRWITFCMSIISTLT
5 | 30.4 pM | 20.9 pM |  | hIL2 mutein HEK (L18H, Q22E, Q126K) (ligand) APTSSSTKKTQLQLEHLHLDLEMILNGINNYKNPKLTRMLTFKFYMPKKATELKHLQCLEEELKPLEEVLNLAQSKNFHLRPRDLISNINVIVLELKGSETTFMCEYADETATIVEFLNRWITFCKSIISTLT
6 |  | 62.8 pM |  | hIL2 mutein RTK (L18R, Q22T, Q126K) (ligand) APTSSSTKKTQLQLEHLRLDLTMILNGINNYKNPKLTRMLTFKFYMPKKATELKHLQCLEEELKPLEEVLNLAQSKNFHLRPRDLISNINVIVLELKGSETTFMCEYADETATIVEFLNRWITFCKSIISTLT
7 | 4.6 pM | 15.5 pM |  | hIL2 mutein VEK (L18V, Q22E, Q126K) (ligand) APTSSSTKKTQLQLEHLVLDLEMILNGINNYKNPKLTRMLTFKFYMPKKATELKHLQCLEEELKPLEEVLNLAQSKNFHLRPRDLISNINVIVLELKGSETTFMCEYADETATIVEFLNRWITFCKSIISTLT
8 | 22.1 pM | 19.3 pM |  | hIL2 mutein REY (L18R, Q22E, Q126Y) (ligand) APTSSSTKKTQLQLEHLRLDLEMILNGINNYKNPKLTRMLTFKFYMPKKATELKHLQCLEEELKPLEEVLNLAQSKNFHLRPRDLISNINVIVLELKGSETTFMCEYADETATIVEFLNRWITFCYSIISTLT
9 | 18.4 pM | 33 pM | pSTAT5 ratio YT CD25/YT, dilution factor 2, upper table [2]: 1.4; pSTAT5 ratio YT CD25/YT, dilution factor 4, upper table [2]: 2.9; pSTAT5 ratio YT CD25/YT, dilution factor 8, upper table [2]: 5.9; pSTAT5 ratio YT CD25/YT, dilution factor 16, upper table [2]: 10.1; pSTAT5 ratio YT CD25/YT, dilution factor 32, upper table [2]: 13.5; pSTAT5 ratio YT CD25/YT, dilution factor 64, upper table [2]: 15.3; pSTAT5 ratio YT CD25/YT, dilution factor 128, upper table [2]: 16.8 | hIL2 mutein REE (L18R, Q22E, Q126E) (ligand) APTSSSTKKTQLQLEHLRLDLEMILNGINNYKNPKLTRMLTFKFYMPKKATELKHLQCLEEELKPLEEVLNLAQSKNFHLRPRDLISNINVIVLELKGSETTFMCEYADETATIVEFLNRWITFCESIISTLT
10 | 13.1 pM | 13.1 pM |  | hIL2 mutein RER (L18R, Q22E, Q126R) (ligand) APTSSSTKKTQLQLEHLRLDLEMILNGINNYKNPKLTRMLTFKFYMPKKATELKHLQCLEEELKPLEEVLNLAQSKNFHLRPRDLISNINVIVLELKGSETTFMCEYADETATIVEFLNRWITFCRSIISTLT
11 | 58.7 pM | 36 pM |  | hIL2 mutein EEK (L18E, Q22E, Q126K) (ligand) APTSSSTKKTQLQLEHLELDLEMILNGINNYKNPKLTRMLTFKFYMPKKATELKHLQCLEEELKPLEEVLNLAQSKNFHLRPRDLISNINVIVLELKGSETTFMCEYADETATIVEFLNRWITFCKSIISTLT
12 | 17.7 pM | 14.2 pM | pSTAT5 ratio YT CD25/YT, dilution factor 2, upper table [2]: 1.1; pSTAT5 ratio YT CD25/YT, dilution factor 4, upper table [2]: 1.6; pSTAT5 ratio YT CD25/YT, dilution factor 8, upper table [2]: 2.6; pSTAT5 ratio YT CD25/YT, dilution factor 16, upper table [2]: 4.8; pSTAT5 ratio YT CD25/YT, dilution factor 32, upper table [2]: 7.7; pSTAT5 ratio YT CD25/YT, dilution factor 64, upper table [2]: 11.8; pSTAT5 ratio YT CD25/YT, dilution factor 128, upper table [2]: 13.1 | hIL2 mutein REK (L18R, Q22E, Q126K) (ligand) APTSSSTKKTQLQLEHLRLDLEMILNGINNYKNPKLTRMLTFKFYMPKKATELKHLQCLEEELKPLEEVLNLAQSKNFHLRPRDLISNINVIVLELKGSETTFMCEYADETATIVEFLNRWITFCKSIISTLT
13 |  |  | EC50 (read off the curve) [3]: ~8 pM | STK-012 (N-terminally 40 kD PEGylated des-Ala1 REK hIL2 mutein, STK-011) (ligand, N-terminal proline conjugated to a 40 kd (20 kD x 2 arm) branched PEG moiety via a linker) PTSSSTKKTQLQLEHLRLDLEMILNGINNYKNPKLTRMLTFKFYMPKKATELKHLQCLEEELKPLEEVLNLAQSKNFHLRPRDLISNINVIVLELKGSETTFMCEYADETATIVEFLNRWITFCKSIISTLT
